US20090149377, “METHODS FOR REGULATION OF p53 TRANSLATION AND FUNCTION” (ST. JUDE CHILDREN'S RESEARCH HOSPITAL, published 2009)

Target: RPL26 (Homo sapiens, UniProt P61254 SEQ:1-145)
Assay: EMSA; supershift with anti-penta His; 1.5 mM Mg acetate, 90 mM K acetate, 30 C

B1: p53 5'UTR (-191 to 2) (ssRNA)
RNA: GGUUUUCCCCUCCCAUGUGCUCAAGACUGGCGCUAAAAGUUUUGAGCUUCUCAAAAGUCUAGAGCCACCGUCCAGGGAGCAGGUAGCUGCUGGGCUCCGGGGACACUUUGCGUUCGGGCUGGGAGCGUGCUUUCCACGACGGUGACACGCUUCCCUGGAUUGGCAGCCAGACUGCCUUCCGGGUCACUGCCAU
  binding result: binds
